Results: publication PMC6395948 (Molecular Cell, 2019)

How the values were obtained:
crystal structure = target: the molecule itself; assay: crystal structure
McbD = target: T1, McbD (Escherichia coli, UniProt P23186 1-396); assay: crystal structure
T1 sequence: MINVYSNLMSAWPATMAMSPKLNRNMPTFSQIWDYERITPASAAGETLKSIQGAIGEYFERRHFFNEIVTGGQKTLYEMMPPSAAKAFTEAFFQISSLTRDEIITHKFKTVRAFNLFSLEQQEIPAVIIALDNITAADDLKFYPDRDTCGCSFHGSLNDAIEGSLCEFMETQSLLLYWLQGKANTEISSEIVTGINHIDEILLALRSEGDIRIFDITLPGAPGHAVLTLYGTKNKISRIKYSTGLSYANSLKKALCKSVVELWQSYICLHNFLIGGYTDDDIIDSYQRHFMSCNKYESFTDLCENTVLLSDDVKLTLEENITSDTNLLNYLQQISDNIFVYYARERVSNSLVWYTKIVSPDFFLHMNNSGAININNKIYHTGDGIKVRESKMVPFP

binding result (McbD): binds
B1: McbB (natural protein, Escherichia coli)
chain: MVLPDIKKGKDMINILPFEIISRNTKTLLITYISSVDITHEGMKKVLESLRSKQGIISEYLLDKLLDESLIDKDKGKEFLITTGVINKTKTSPLWVNSVIISDVPHLFSNAREQWKCDGVFVSHIIDIKDNNINVSDSTLIWLHLENYHSDIVKRIYSKFESNPGVAFIQSYYLKESFRIDGVYSPDLGTPCHFCHIERWLSREEKSFRRNEMSWANLLQLLKKYQMTLPALALGESERGFSYHLIKRRLQELTGTSLVKSHVDNFMSSVSADLITCILCKEPVIHWQACSCLER
stoichiometry N (crystal structure): 2
